Measurements from patent US20230310634A1, “ANTI-HUMAN VISTA ANTIBODIES AND USE THEREOF” (IMMUNEXT, INC., priority 2020, published 2023).

Tests used:
[1] = molecular target: T1, human VISTA on cells (human) (UniProt Q9H7M9); test: flow cytometry with quantification beads, CD4+ T cells of human PBMC, n=5 donors
T1 sequence: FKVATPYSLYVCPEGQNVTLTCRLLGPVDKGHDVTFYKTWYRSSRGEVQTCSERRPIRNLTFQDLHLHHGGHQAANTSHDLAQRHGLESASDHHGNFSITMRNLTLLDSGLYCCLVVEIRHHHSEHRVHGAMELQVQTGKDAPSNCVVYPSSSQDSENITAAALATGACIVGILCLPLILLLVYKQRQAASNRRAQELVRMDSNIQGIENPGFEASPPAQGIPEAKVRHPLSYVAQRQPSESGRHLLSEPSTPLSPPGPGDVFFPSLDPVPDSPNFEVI

[2] = molecular target: T1, human VISTA on cells (human); test: flow cytometry with quantification beads, CD8+ T cells of human PBMC, n=5 donors
[3] = molecular target: T1, human VISTA on cells (human); test: flow cytometry with quantification beads, Tregs in human whole blood, n=3 donors
[4] = molecular target: T1, human VISTA on cells (human); test: flow cytometry with quantification beads, CD14+ monocytes of human PBMC, n=5 donors
[5] = molecular target: T1, human VISTA on cells (human); test: flow cytometry with quantification beads, CD4+ T cells in human whole blood, n=3 donors
[6] = molecular target: T1, human VISTA on cells (human); test: flow cytometry with quantification beads, CD8+ T cells in human whole blood, n=3 donors
[7] = molecular target: T1, human VISTA on cells (human); test: flow cytometry with quantification beads, CD20+ B cells in human whole blood, n=3 donors
[8] = molecular target: T1, human VISTA on cells (human); test: flow cytometry with quantification beads, CD14+ monocytes in human whole blood, n=3 donors
[9] = molecular target: T1, human VISTA on cells (human); test: flow cytometry with quantification beads, CD4+ CD25+ CD127low Tregs of human PBMC, n=5 donors
[10] = molecular target: T1, human VISTA on cells (human); test: flow cytometry with quantification beads, CD66b+ neutrophils in human whole blood, n=3 donors

antibody binding capacity (ABC) [1]: 5940 molecules
antibody binding capacity (ABC) [2]: 9960 molecules
antibody binding capacity (ABC) [3]: 7490 molecules
antibody binding capacity (ABC) (ABC (molecules per cell)) [4]: 112000
antibody binding capacity (ABC) [5]: 8720 molecules
antibody binding capacity (ABC) [6]: 5010 molecules
antibody binding capacity (ABC) (ABC (molecules per cell)) [7]: 1280
antibody binding capacity (ABC) (ABC (molecules per cell)) [8]: 224000
antibody binding capacity (ABC) [9]: 6640 molecules
antibody binding capacity (ABC) (ABC (molecules per cell)) [10]: 68600
B1: Anti-VISTA GG8 (antibody, V domains shown)
VH: EVQLQQSGPELVKPGTSMKISCKASGYSFTGYTMNWVRQSHGKNLEWIGLINPYNGGINYNQKFKARATLTVDKSSSTAYMELLSLTSEDSAVYYCARRTLLRPYFFDYWGQGTTLTVSS
VL: DIVLTQSPASLAVSLGQRATISCRASQSVSTSTFSYMHWYQQKPGQPPKLLIKYASNLESGVPARFSGSGSGTDFTLNIHPVEEEDTATYYCQHSWEIPYTFGGGTKLEIK
modifications: Alexa Fluor 647 dye conjugated to the antibody (p-1554); attachment sites not given
